We go through one substance from PMC3135399.

For this test, the target named is microtubules (taxol-stabilised, of the MT cosedimentation assay) (bovine) (UniProt Q6B856). Kind of test: co-sedimentation.

On to “alkaline phosphatase–treated WT CPC, P38283 1-698; P38991 1-367; P47134 1-954; Q3E7Y6 1-73”, for which the percent cosedimented with MTs came to 50%.
